The DeepSol protein solubility set

Test: soluble on expression in E. coli; label from the status in PepcDB or PDB records

Row | Sequence | soluble on expression in E. coli
1 | MAEGGAADLDTQRSDIATLLKTSLRKGDTWYLVDSRWFKQWKKYVGFDSWDKYQMGDQNVYPGPIDNSGLLKDGDAQSLKEHLIDELDYILLPTEGWNKLVSWYTLMEGQEPIARKVVEQGMFVKHCKVEVYLTELKLCENGNMNNVVTRRFSKADTIDTIEKEIRKIFSIPDEKETRLWNKYMSNTFEPLNKPDSTIQDAGLYQGQVLVIEQKNEDGTWPRGPSTPNVKNSNYCLPSYTAYKNYDYSEPGRNNEQPGLCGLSNLGNTCFMNSAIQCLSNTPPLTEYFLNDKYQEELNFDNPLGMRGEIAKSYAELIKQMWSGKFSYVTPRAFKTQVGRFAPQFSGYQQQDCQELLAFLLDGLHEDLNRIRKKPYIQLKDADGRPDKVVAEEAWENHLKRNDSIIVDIFHGLFKSTLVCPECAKISVTFDPFCYLTLPLPMKKERTLEVYLVRMDPLTKPMQYKVVVPKIGNILDLCTALSALSGIPADKMIVTDIYNHRFHRIFAMDENLSSIMERDDIYVFEININRTEDTEHVIIPVCLREKFRHSSYTHHTGSSLFGQPFLMAVPRNNTEDKLYNLLLLRMCRYVKISTETEETEGSLHCCKDQNINGNGPNGIHEEGSPSEMETDEPDDESSQDQELPSENENSQSEDSVGGDNDSENGLCTEDTCKGQLTGHKKRLFTFQFNNLGNTDINYIKDDTRHIRFDDRQLRLDERSFLALDWDPDLKKRYFDENAAEDFEKHESVEYKPPKKPFVKLKDCIELFTTKEKLGAEDPWYCPNCKEHQQATKKLDLWSLPPVLVVHLKRFSYSRYMRDKLDTLVDFPINDLDMSEFLINPNAGPCRYNLIAVSNHYGGMGGGHYTAFAKNKDDGKWYYFDDSSVSTASEDQIVSKAAYVLFYQRQDTFSGTGFFPLDRETKGASAATGIPLESDEDSNDNDNDIENENCMHTN | soluble
2 | DIPFYEQVKASAGHGFLCECKNVTYISLPKALFKYFNVKDLLAITAHGDSMEPVLNDDALLVIDSSKKQIRDGSMYVIRQGDLIRVKLISLDNNGLKLKSYNQSYHDEIYEDYQDVEILGKVIWYSSLCL | not soluble
3 | MGSDKIHHHHHHMINQVYRLVSERQFEEANIEEALTEDVVVVRPTYLSICAADQRYYTGSRGKEMLSKKLPMALIHEGVGQVTYDATGEFEIGTKVVMIPNTPTEDDPVIAENYRRSSLFRSSGYDGLMQENVFMRRDRVVRLPENMDMEVAAYSELISVAFHAITRFKQKANANQSVFGVWGDGNLGFITCLLLKTIYPESKVIIFGKTQYKLDFFSFVDEAHLVDEIPEGLVIDNAFECAGGKGSQYAVEQIIDLIKPEGTISLLGVSENPIEFNSRMVLEKGLTVFGSSRSGKEDFQNTVNFLSENERAVEYLSSLIGQRKVVRNLQDIIEAFETDLRNPFGKTVMEWKV | not soluble
4 | MGSDKIHHHHHHMIKNNRVYGIIGVGAYMANFNADLSGYPKTTTNNDIFGSDKALKYPMKRMWLIEGDKVFYIKSMTIAKSKKDKEMEILQPKDLIERYEDLFGKEWDANLTVKDVAKDLFSTVDIMNFGATFTGSESESKTAKKKIGHNISITGAVQINQGFNLYEKTNVLVQDILSPFRNPNDKSEDKTATSIGTKIVTDEAHYVYSFSVNPANYADYLGLIDGFEGYTTEAYEKFKRAARVATTAFNTNSKSGCENELALFIELKEDSKLFLANLDRYVEVRKKEKQTLYDLSKLAEIIAPQQEEIQSIELFHNPISVEVNYGSLPCTVNSIF | not soluble
5 | ADAYFYNPITSQRSNFPLSYPMTAKSFMEKHGLLDREEYLKRLAENENNVELVNYPLEKLEFNRRVNKLNVLMISVNNLRADALNQEEMPNLYEFAQQNQNFRKHYSSSNDTYGAFGLFYGLPTSYASSIKAQGASPVLLDVLKDQGYTFGLFSGSGFEDDLYSEIVFRGVNLAEKLDGTQAHTDKQSIADWNMWLTEKANQPWFSYIEVTTVDNFESIPSNSKEDMSASERFKNAYEFAVKSADDKVGGIIKTLEDAQLLANTVVIVTSNHGSEFNETNTNSWGANSNYSRYQLQVPMVIHWPGMMAGEFNHSTSHLDLSVTLLQDMLGVSSNPYDYSSGRNLFDESRRRWILAGDTRELALITNNQTTVIDKFGNYKLYDENYKRMRDETPKLPVLMQGLTELQRFYSKSE | not soluble
6 | MLVRRLFQPSTLHWAWRTTALNHPLGRHQGGLRWTHSGGRSYRAVIFDTGGVLVPSPGTVAVGWEVQNHVPSGTIVKAFIRGGDSGPWIRFIKGEITTEHFLEEFGRLCSEIAKTSVPVSSYFSLLTSEQVTKQFPVMTQAISQIRAKGLQTAVLTNNFHLSSGESFLPLDRKQFDVVVESCLEGICKPDPRIFQLCLQRLSLQPSEAIFLDDLGSNLKVAASLGIHTIKVDRPETAVKELEALLGFPLHLGVPNTRPVRKTMAIPQDALEKYLKGLLGTHSTGPMELLQFDHGQSNPTYYIRLADRQLVLRKKPSGTLLPSAHAIEREFRIMKALANAGVPVPTVLDLCEDSSIIGTPFYLMEYCPGIIYKDPSLPGLEPSRREAIYTAMNQVLCRIHSVDLQATSLDSFGKQGDYIPRQVQTWTKQYRAAETSSIPAMERLIQWLPLHLPRQQRTTLVHGDFRLDNLIFHPEKAEVLAVLDWELSTLGDPFADVAYSCLAYYLPSSFPILRGFRDQDVTKLGIPTVEEYFRMYCLNMGIPPIDNWNFYMAFSFFRVAAILQGVYKRSLTGQASSATAQQSGKLTESMAELAWDFATKEGFRVFKEMPATKTLSRSYHAWAGPRSPRTPKGVRGHSTVAAASPSHEAKGGLVISPEGLSPAVRKLYEQLVQFIEQKVYPLEPELQRHQASADRWSPSPLIEDLKEKAKAEGLWNLFLPLETDPEKKYGAGLTNVEYAHLCEVMGMSLYASEIFNCSAPDTGNMEILVRYGTEEQKARWLVPLLEGRIRSCFAMTEPQVASSDASNIEASIKEEDGCYVINGHKWWTSGILDPRCKLCVFMGKTDPQAPRHQQQSMLLVPMDSPGITVIRPLSVFGLEDPPGGHGEVRFKDVRVPKENILLGPGRGFEIAQGRLGPGRIHHCMRLIGYSERALALMKTRVMSRTAFGKPLVEQGTILADIARSRVEIEQARLLVLKAAHLMDVAGNKTAALDIAMIKMVVPSMAYHVIDRAIQAFGAAGLSSDYPLAQFFGWARALRFADGPDEVHQLTVAKMELKNQSRMQEPAVPRV | soluble
7 | MTTTGLRPRLNVRQRKDTGYLPHSSPFSLQFRPAILYSDGYLPQVPEDKNETDKIHTPRIVPQKLERTPSDTSRSRGCHCFYAGWL | not soluble
8 | MGSDKIHHHHHHVIKLIRQFVLPHFGIDATEAKISALGNGHINETLLVRWPTGELVLQRINTQVFKTPQALVSNADKISHHLCAKALQQQYGLKVVSPCLTKEGELALDLGEQGFWRAISYLPHSHSIEVVKSEKEAEMAAKAFGHFASALSDFDATQLEDVIPQFHHLPGRMALLKQAVELDSQHRLAFCRHWVDYAVSQQALLDELAEISPKLPLRICHNDTKINNMLFDKRDMSSMAIIDLDTCMKGHLMYDFGDMVRTFCSPEAEDSTALENVKVRQSIFAAICRGYLSELGNVLTEVEKRSLWLGARVICLMIGVRFLTDYLNGDVYFHIHREGHNLDRAANQFTLYQSLLDQDVALKACFELNPLSAVEHS | not soluble
9 | MIRKNKWLRFQTVCRYIPLSLKNHNRLVIFVCQRIEWRYIFSTNTGHPLKNTCEMTGTDFSTDGLMRRYVTGGNNQWHTVASLHMTIMMNRIGTVADRQPKARKVKHGEMTLEHHHHHH | not soluble
10 | MAAGKRDYYEVLGVSRSATAQDIKRAFRKLAMQYHPDRHKGEGETVQKQNEEKFKEVNEAYEVLSDTEKRGMYDRFGHEGLNASGFHETGFNPFDIFNSVFGEGFSFDMDGGSPFDFIFSRGKKSRQNRVVLPYDLEIAVGVDISFFEMTNGCTRTIEYTKRVTCSACDGFGAEGGETGMVSCNSCEGNGFILKNQRSIFGTVQSQMLCQSCGGQGKQAKHKCKTCKGSKYKKVPTTKEIQIPAGIYHGDALVDDHGGNEFGGHVGKLVVHVGVLPSKIFKRVDHNVVANVLVDPMIAITGGKIELPTLEGIKEFNLRAGTKSGEQIVIPGGGIKFTKNFRKKAGDLIIIISYARPSEYSAPELRKLKEFIKPNQEVKQYLEHHHHHH | soluble
11 | MKSLESMEQFQQLKNEENVVFMFSAEWCPDCRFVDPFMPEVEEKYSDFSFYYVDRDEFIDLCVKLDVFGIPSFVAYNKGEETGRYVNKDRKTQEQIEEFIEGLK | not soluble
12 | QSDEWRRTTRLLGEILEDTTRPPLERLRRLVLAFVRSECEEAAIRVALSDAAPLYRDADEAREVKAEGARVFQAFLREALPEVAEAERSLAGDLLTTTLGAVGKQFSEQPRSEAEIERYAEALADMLCAYLAALGER | not soluble
13 | MASSTISLQSISMTTLNNLSYSKQFHRSSLLGFSKSFQNFGISSNGPGSSSPTSFTPKKKLTPTRALSQNLGNTENPRPSKVQELSVYEINDLDRHSPKILKNAFSFRFGLGDLVPFTNKLYTGDLKKRVGITAGLCVVIEHVPEKNGDRFEATYSFYFGDYGHLSVQGPYLTYEDSFLAITGGAGIFEGAYGQVKLQQLVYPTKLFYTFYLKGLANDLPLELIGTPVPPSKDVEPAPEAKALKPSGVVSNFTN | soluble
14 | MVCFGVGSGGTVTGVGRYLRAQKQNIGVYPVEPFESSVLSGFPRGPHKIHGIGAGLIPGNVDRSLFTEVLRVKSEDAMKMARRLADEEAILGEISSGANVVAAVELACRPENIGKLIVTTVNSFAERYFSTELYSTLLSEVSKLPISTDEQAVDIAKKYLGL | not soluble
15 | MGSDKIHHHHHHMFYIMPAWENEVSELNRDLLKNLTNVFVGGKKSVKLAVLNFLPNLRYLLHVNGLTNYEYWNIWDAILGIERVDGMPLGPEALDLPQGVRLINAMTSMDAYEGSKLYARIIRSSEGYLSEVQFMNPQNRHTDVYDDRGFKVCTNYYENEEVVRQEWFNECNQLIVRYEPKAKVAVQILGNYSNFEKRQYKTLNELLMEFVNSFFEEHFDPTQDRLIASTNLKIRPLMVEIQNRLPVTYLLDHLGPMDTTTVETLQPQIQGAFKFVVPNYVIFQQIKSSVAEPAQKVLKLGYPYGTENRLGNSNEESKMFIYWHIDESTNDTTCSQFAEKLIDYSLEHENVGLQVAALNDRQANLVFNYLCQALKNKYTFLDLEQDQDLIWKIVFGREDTDAIGKLLMQLKFRLGMNLKHDPETNPQKLADSARFKKINWKKVMEDITETIIRVNSRDNEIYRNLARSRVLVDVGSPYNTRMQFNAISAGIPQIVNVDSPFIINRKNGWIINEKQSLSQGLDFYLQELGNWNKSLVATTKYMEQLTLKRQADWWERRTKYEK | not soluble
16 | MARPANTLQSLAELNGKAPSRRQLNIQHWNTAEGARVLFVEARELPMFDLRVTFAAGSSQDGGTPGLAALTNAMLNEGVAGKDVTAIAEGFEGLGADFGNGSYRDMAVASLRSLSAKDKREPALKLFTEVAGKPTFPEDALKRIKNQMLAGFEYEKQNPGKIAGKALFGKLYGDHPYAHPSDGTAESITGISLAQLRAFHAKAYTGGNAVIALVGDLSRAEAEAIAAQVSAGLPKGPALAAPAQPADAKAGLTHIDFPSKQTHLMLAELGIDRQDPDWPALSMGNQILGGGAFGTRLMSEVREKRGLTYGVYSVFSPMQVRGPFMINLQTRAELSEGTLKLVQGILADYLKTGPTQQELDDAKRELAGSFPLSNASNASIVGQLGAIGFYNLPLTWLEDFMQQSQALTVEQVKAAMNKHLSADKLVIVTVGPKVPQKPLEHHHHHH | not soluble
17 | MSRVKNVVELLETKGVDALYLTKKTNVNYISGFPDEEAYAVICKDGNFLVTDSRYMELAEKVCKDFEIINWHNFDRSVAKAVKSVCDKVGIKKLGFERTNIVFDKYEELKNLIEKDNGELIPTENIVETLRYVKDKDEIKNTRKACEIADKALEELIPHIKAGVSEIELATKLEYFMKMNGAQNIGFETILISGAKTSLLHGKPSDKIIEKGDFVLIDYGAMYNGYISDTTRTFIVGGASEKQLEIYNLVKEAQNVGVENMKAGVHATIPDAEIRKVVKKYEDYYYQGIGHGVGRDVHEEPFIGNYGDKIIEEGCIITMEPGIYFPGWGGVRIEDTVLITKNGPERLTKFPKDLMILDK | not soluble
